# Data published in US20180155451A1 (published 2018).
# T1: FcγRIIb (human, UniProt P31994 43-217)
# T1 construct: extracellular domain; also called FcgRIIb; 2b; not shown: His tag at the C terminus
# T1 sequence (looked up): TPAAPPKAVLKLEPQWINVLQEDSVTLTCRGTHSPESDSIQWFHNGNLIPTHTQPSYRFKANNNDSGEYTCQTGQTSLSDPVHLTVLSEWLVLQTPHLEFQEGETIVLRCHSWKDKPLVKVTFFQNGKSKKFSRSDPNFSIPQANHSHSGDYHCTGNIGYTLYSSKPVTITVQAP
# T2: FcγRIIb extracellular domain with C-terminal His tag (human, UniProt P31994 43-217)
# T2 construct: extracellular domain; Expressed in FreeStyle293 cells; analyte in the Biacore assay; also called FcgRIIb; 2b; not shown: His tag at the C terminus
# T2 sequence (looked up): T1 sequence (looked up)
# B1: GpH7-A5/GpH7-B3 variant V266_09D/GpL16-k0 (antibody, human IgG1, kappa)
# heavy 1: not shown
# heavy 2: not shown
# light: DIVMTQSPLSLPVTPGEPASISCQASESLVHSNRNTYLHWYLQKPGQSPQLLIYKVSNRFSGVPDRFSGSGSGTDFTLKISRVEAEDVGVYYCSQNTHVPPTFGQGTKVEIERTVAAPSVFIFPPSDEQLKSGTASVVCLLNNFYPREAKVQWKVDNALQSGNSQESVTEQDSKDSTYSLSSTLTLSKADYEKHKVYACEVTHQGLSSPVTKSFNRGEC
# notes: He Ab: mutation only in the GpH7-B3 H chain; EU numbering; also called He Ab
# B2: GpH7-A5/GpH7-B3 variant S267_12R/GpL16-k0 (antibody, human IgG1, kappa)
# heavy 1: not shown
# heavy 2: not shown
# light: B1 light
# notes: as for B1
# B3: GpH7-A5/GpH7-B3 variant H268_06M/GpL16-k0 (antibody, human IgG1, kappa)
# heavy 1: not shown
# heavy 2: not shown
# light: B1 light
# notes: as for B1
# B4: GpH7-A5/GpH7-B3 variant E269_01G/GpL16-k0 (He Ab) (antibody, human IgG1, kappa)
# heavy 1: not shown
# heavy 2: not shown
# light: B1 light
# notes: Heterodimerized anti-glypican-3 IgG1; the mutation stands in the GpH7-B3 chain only
# B5: GpH7-A5/GpH7-B3 variant E269_03V/GpL16-k0 (He Ab) (antibody, human IgG1, kappa)
# heavy 1: not shown
# heavy 2: not shown
# light: B1 light
# notes: as for B4
# B6: GpH7-A5/GpH7-B3 variant E269_07I/GpL16-k0 (He Ab) (antibody, human IgG1, kappa)
# heavy 1: not shown
# heavy 2: not shown
# light: B1 light
# notes: as for B4
# B7: GpH7-A5/GpH7-B3 variant E269_08L/GpL16-k0 (He Ab) (antibody, human IgG1, kappa)
# heavy 1: not shown
# heavy 2: not shown
# light: B1 light
# notes: as for B4
# B8: GpH7-A5/GpH7-B3 variant E269_15Y/GpL16-k0 (He Ab) (antibody, human IgG1, kappa)
# heavy 1: not shown
# heavy 2: not shown
# light: B1 light
# notes: as for B4
# B9: GpH7-A5/GpH7-B3 variant E269_16H/GpL16-k0 (He Ab) (antibody, human IgG1, kappa)
# heavy 1: not shown
# heavy 2: not shown
# light: B1 light
# notes: as for B4
# B10: GpH7-A5/GpH7-B3 variant E269_14T/GpL16-k0 (He Ab) (antibody, human IgG1, kappa)
# heavy 1: not shown
# heavy 2: not shown
# light: B1 light
# notes: as for B4
# B11: GpH7-A5/GpH7-B3 variant E269_11K/GpL16-k0 (He Ab) (antibody, human IgG1, kappa)
# heavy 1: not shown
# heavy 2: not shown
# light: B1 light
# notes: as for B4
# B12: GpH7-A5/GpH7-B3 variant E269_05P/GpL16-k0 (He Ab) (antibody, human IgG1, kappa)
# heavy 1: not shown
# heavy 2: not shown
# light: B1 light
# notes: as for B4
# B13: GpH7-A5/GpH7-B3 variant E269_04F/GpL16-k0 (He Ab) (antibody, human IgG1, kappa)
# heavy 1: not shown
# heavy 2: not shown
# light: B1 light
# notes: as for B4
# B14: GpH7-A5/GpH7-B3 variant H268_07I/GpL16-k0 (He Ab) (antibody, human IgG1, kappa)
# heavy 1: not shown
# heavy 2: not shown
# light: B1 light
# notes: as for B4
# B15: GpH7-A5/GpH7-B3 variant H268_08L/GpL16-k0 (He Ab) (antibody, human IgG1, kappa)
# heavy 1: not shown
# heavy 2: not shown
# light: B1 light
# notes: as for B4
# B16: GpH7-A5/GpH7-B3 variant E269_13S/GpL16-k0 (He Ab) (antibody, human IgG1, kappa)
# heavy 1: not shown
# heavy 2: not shown
# light: B1 light
# notes: as for B4
# B17: GpH7-A5/GpH7-B3 variant E269_06M/GpL16-k0 (He Ab) (antibody, human IgG1, kappa)
# heavy 1: not shown
# heavy 2: not shown
# light: B1 light
# notes: as for B4
# B18: GpH7-A5/GpH7-B3 variant E269_18N/GpL16-k0 (He Ab) (antibody, human IgG1, kappa)
# heavy 1: not shown
# heavy 2: not shown
# light: B1 light
# notes: as for B4
# B19: GpH7-A5/GpH7-B3 variant H268_11K/GpL16-k0 (He Ab) (antibody, human IgG1, kappa)
# heavy 1: not shown
# heavy 2: not shown
# light: B1 light
# notes: as for B4
# B20: GpH7-A5/GpH7-B3 variant E269_12R/GpL16-k0 (He Ab) (antibody, human IgG1, kappa)
# heavy 1: not shown
# heavy 2: not shown
# light: B1 light
# notes: as for B4
# B21: GpH7-A5/GpH7-B3 variant E269_02A/GpL16-k0 (He Ab) (antibody, human IgG1, kappa)
# heavy 1: not shown
# heavy 2: not shown
# light: B1 light
# notes: as for B4
# Biological target: T1, FcγRIIb
# Assay: SPR (Biacore), captured antibody, soluble FcγR; relative to GpH7-A5/GpH7-B3/GpL16-k0
row,He/Con_2b,Binder
1,"10.1 relative, HeCon Ab = 100",B1
2,"11.3 relative, HeCon Ab = 100",B2
3,"65.7 relative, HeCon Ab = 100",B3

# Biological target: T3, FcγRIa (human, UniProt P12314 16-292)
# T3 construct: extracellular domain; also called FcgRI; 1a; not shown: His tag at the C terminus
# T3 sequence (P12314 16-292): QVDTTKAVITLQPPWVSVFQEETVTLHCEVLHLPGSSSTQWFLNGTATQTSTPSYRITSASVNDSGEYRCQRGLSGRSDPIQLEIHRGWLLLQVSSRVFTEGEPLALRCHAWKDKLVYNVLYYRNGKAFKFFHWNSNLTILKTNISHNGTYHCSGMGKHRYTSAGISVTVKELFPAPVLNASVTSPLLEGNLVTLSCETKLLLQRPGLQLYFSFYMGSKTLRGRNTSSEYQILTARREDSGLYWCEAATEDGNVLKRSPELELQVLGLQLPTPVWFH
# Assay: as above
row,He/Con_1a,Binder
1,"79.3 relative, HeCon Ab = 100",B1
2,"92.7 relative, HeCon Ab = 100",B2
3,"105 relative, HeCon Ab = 100",B3

# Biological target: T3, FcγRIa
# Assay: SPR; He/Con_1a divided by He/Con_2b (FcγRIIb as reference)
row,Ia/IIb He_1a/2b [ratio],Binder
1,7.88,B1
2,8.21,B2
3,1.59,B3

# Biological target: T2, FcγRIIb extracellular domain with …
# Assay: SPR (Biacore), antibody captured on antigen-peptide chip, FcγR as analyte; relative binding
row,He/Con_2b,Binder
1,51.5 % of GpH7-A5/GpH7-B3/GpL16-k0 (=100),B4
2,45.1 % of GpH7-A5/GpH7-B3/GpL16-k0 (=100),B5
3,43.9 % of GpH7-A5/GpH7-B3/GpL16-k0 (=100),B6
4,42.9 % of GpH7-A5/GpH7-B3/GpL16-k0 (=100),B7
5,44.7 % of GpH7-A5/GpH7-B3/GpL16-k0 (=100),B8
6,38.5 % of GpH7-A5/GpH7-B3/GpL16-k0 (=100),B9
7,50.6 % of GpH7-A5/GpH7-B3/GpL16-k0 (=100),B10
8,17.8 % of GpH7-A5/GpH7-B3/GpL16-k0 (=100),B11
9,52.6 % of GpH7-A5/GpH7-B3/GpL16-k0 (=100),B12
10,45 % of GpH7-A5/GpH7-B3/GpL16-k0 (=100),B13
11,88.9 % of GpH7-A5/GpH7-B3/GpL16-k0 (=100),B14
12,67.8 % of GpH7-A5/GpH7-B3/GpL16-k0 (=100),B15
13,47.8 % of GpH7-A5/GpH7-B3/GpL16-k0 (=100),B16
14,46.7 % of GpH7-A5/GpH7-B3/GpL16-k0 (=100),B17
15,44.8 % of GpH7-A5/GpH7-B3/GpL16-k0 (=100),B18
16,83 % of GpH7-A5/GpH7-B3/GpL16-k0 (=100),B19
17,25.2 % of GpH7-A5/GpH7-B3/GpL16-k0 (=100),B20
18,49.9 % of GpH7-A5/GpH7-B3/GpL16-k0 (=100),B21

# Biological target: T4, FcγRIa extracellular domain with C-terminal His tag (human, UniProt P12314 16-292)
# T4 construct: extracellular domain; Expressed in FreeStyle293 cells; analyte in the Biacore assay; also called FcgRI; 1a; not shown: His tag at the C terminus
# T4 sequence (P12314 16-292): as above
# Assay: as above
row,He/Con_1a,Binder
1,104 % of GpH7-A5/GpH7-B3/GpL16-k0 (=100),B4
2,103 % of GpH7-A5/GpH7-B3/GpL16-k0 (=100),B5
3,103 % of GpH7-A5/GpH7-B3/GpL16-k0 (=100),B6
4,104 % of GpH7-A5/GpH7-B3/GpL16-k0 (=100),B7
5,106 % of GpH7-A5/GpH7-B3/GpL16-k0 (=100),B8
6,106 % of GpH7-A5/GpH7-B3/GpL16-k0 (=100),B9
7,106 % of GpH7-A5/GpH7-B3/GpL16-k0 (=100),B10
8,95.2 % of GpH7-A5/GpH7-B3/GpL16-k0 (=100),B11
9,102 % of GpH7-A5/GpH7-B3/GpL16-k0 (=100),B12
10,103 % of GpH7-A5/GpH7-B3/GpL16-k0 (=100),B13
11,108 % of GpH7-A5/GpH7-B3/GpL16-k0 (=100),B14
12,107 % of GpH7-A5/GpH7-B3/GpL16-k0 (=100),B15
13,103 % of GpH7-A5/GpH7-B3/GpL16-k0 (=100),B16
14,104 % of GpH7-A5/GpH7-B3/GpL16-k0 (=100),B17
15,102 % of GpH7-A5/GpH7-B3/GpL16-k0 (=100),B18
16,106 % of GpH7-A5/GpH7-B3/GpL16-k0 (=100),B19
17,97.1 % of GpH7-A5/GpH7-B3/GpL16-k0 (=100),B20
18,104 % of GpH7-A5/GpH7-B3/GpL16-k0 (=100),B21
